From paper PMC3185027, “Structural and functional roles of deamidation of N146 and/or truncation of NH2- or COOH-termini in human αB-crystallin” (Molecular Vision, 2011) come the findings set out here.

This data set concerns the molecule itself. The data set can be described thus: SEC-MALS; HPLC-coupled multi-angle laser light scattering (Wyatt), 18 angles; samples in 50 mM sodium phosphate pH 7.8, filtered through 0.22 μm; absolute molar mass of homomers.

Where a chain is given by its changes, count along the chain named. In names and notes the source's numbering stands.

B1: wild-type (WT) αB-crystallin (natural protein, human, UniProt P02511 1-175, looked up)
chain: MDIAIHHPWIRRPFFPFHSPSRLFDQFFGEHLLESDLFPTSTSLSPFYLRPPSFLRAPSWFDTGLSEMRLEKDRFSVNLDVKHFSPEELKVKVLGDVIEVHGKHEERQDEHGFISREFHRKYRIPADVDPLTITSSLSSDGVLTVNGPRKQVSGPERTIPITREEKPAVTAAPKK
notes: human αB-crystallin, full-length protein containing all residues from 1 to 175; Cloned in pET 100 Directional TOPO; also called His-tagged WT αB-crystallin; not shown: His6, N-terminal, kept
In the case of B1, the binding result is listed as “binds”.

B2: αB N146D (deamidated αB-crystallin mutant) (natural protein, human, UniProt P02511 1-175, looked up)
chain: B1 chain with N146D
notes: human αB-crystallin, residues 1-175, Asn 146 changed to Asp to mimic deamidation; Cloned in pET 100 Directional TOPO; not shown: His6, N-terminal, kept
Take B2: the binding result was “binds”.

B3: αB-CT (COOH-terminal extension deleted αB-crystallin) (domain or fragment, human, UniProt P02511 1-150, looked up)
chain: MDIAIHHPWIRRPFFPFHSPSRLFDQFFGEHLLESDLFPTSTSLSPFYLRPPSFLRAPSWFDTGLSEMRLEKDRFSVNLDVKHFSPEELKVKVLGDVIEVHGKHEERQDEHGFISREFHRKYRIPADVDPLTITSSLSSDGVLTVNGPRK
notes: human αB-crystallin lacking the COOH-terminal extension (residues 151-175); containing residues 1-150; Cloned in pET 100 Directional TOPO; also called COOH-terminally truncated αB; not shown: His6, N-terminal, kept
As for B3, the binding result is “binds”.
